The target of one data set is T1, SmcR WT (Vibrio vulnificus, UniProt Q9L8G8 1-205).
T1 sequence: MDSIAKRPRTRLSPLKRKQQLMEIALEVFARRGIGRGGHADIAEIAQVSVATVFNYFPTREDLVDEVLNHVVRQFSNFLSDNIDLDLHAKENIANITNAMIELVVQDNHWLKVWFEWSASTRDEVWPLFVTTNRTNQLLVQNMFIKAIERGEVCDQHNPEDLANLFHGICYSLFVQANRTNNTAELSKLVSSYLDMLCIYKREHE
The data set is described as follows: EMSA.

A further data set addresses T2, SmcR N55I (Vibrio vulnificus, UniProt Q9L8G8 1-205, N55I).
T2 sequence: T1 sequence with N55I
The data set is described as follows: EMSA. (In general: Mobility shift assays separate free from complexed probe on a gel.)

Data set [1] addresses V. harveyi His-RNAP alpha (RNA polymerase alpha subunit) (Vibrio harveyi, UniProt A0A0B4IMU9 1-330). The data set is described as follows: BLI. On the technique in general: In BLI a coated tip is dipped into the sample, and binding shifts an interference pattern.

Residue numbers refer to the chain shown, from its start. Numbers in names are those of the source.

B1: PluxC site E (site D mutated) (dsDNA)
DNA 1: TTTGTTAAATGTTGCGCGTAATTATAAATAAATCAAACTATAATTAGATT
DNA 2: AATCTAATTATAGTTTGATTTATTTATAATTACGCGCAACATTTAACAAA
Consider B1, for which the binding result in the data set with SmcR WT was “binds”.

B2: PluxC site B (JDN55/JDN54) (dsDNA)
DNA 1: TTACTTATTTATAGTGTTACAAATAACATTA
DNA 2: TAATGTTATTTGTAACACTATAAATAAGTAA
On to B2, for which the binding result in the data set with SmcR N55I and in the data set with SmcR WT was “binds” each time.

B3: SmcR wild-type, untagged (Vibrio vulnificus quorum-sensing transcription factor) (natural protein)
chain: T1 sequence
For orientation: Kd means the constant that tells how readily two partners part at equilibrium. Low readings indicate higher affinity, high ones lower affinity. Consider B3, for which binding in data set [1] was put at a Kd of 142 nM.

B4: SmcR N55I, untagged (natural protein)
chain: T1 sequence with N55I
For the molecule B4, the Kd in data set [1] stood at 160 nM. This Kd and that of the molecule before are within 1.5-fold of each other.

B5: PluxC site D (site E mutated) (dsDNA)
DNA 1: TTTGTTAAATGTTATGACTAATTATAAATAAATCAAACGCGCGTTAGATT
DNA 2: AATCTAACGCGCGTTTGATTTATTTATAATTAGTCATAACATTTAACAAA
Consider B5, for which the binding result in the data set with SmcR WT is given as “binds”.

The record behind these values is article doi:10.1101/2020.10.30.362368 (bioRxiv, 2020).
